Laboratory results from patent US20070254831A1 (published 2007).
Read-outs that look alike come from different tables or passages of the source. One block for each binder: values may come before it. Numbered stars: 1 amine (or outer) side, 2 acyl side, 3 side chain; on linkers, the order of the positions; unused ones are H or OH. Bridge positions count the residues as written; N and C are the ends. Square brackets hold non-standard residues; d marks the D form. Ends that are not written are not given here. X3 = 3(S)‑3‑amino‑2‑oxo‑1‑azepine acetic acid, O=C1[C@@H](N[*:1])CCCCN1CC(=O)[*:2]; 3‑amino‑2‑oxo‑1‑piperidine‑acetic acid = dipeptide mimetic in place of Gly-Gly; 6,5‑bicyclic dipeptide mimic = not defined here; Pen = CC(C)(S)[C@H](N)C(=O)O; NMeA = CN[C@@H](C)C(=O)O; Ava = NCCCCC(=O)O; Sar = CNCC(=O)O

Legend:
soluble human FcRn [1] = target: T1, soluble human FcRn (human, UniProt P55899 24-297; P61769 21-119, biotinylated (Sulfo-NHS-LC-Biotin) in the ELISA; amine-coupled to CM5 chip in SPR); experiment: SPR, pH 6
T1 construct: also called shFcRn; biotinylated shFcRn
Experimental: (§1) The following steps were performed to cross-link soluble human or cynomolgus FcRn to the dextran surface of a CM5 sensor chip (Biacore AB, Uppsala, Sweden) by an amine coupling reaction involving 1-ethyl-(3-dimethylaminopropyl)-carbodiimide hydrochloride (EDC) (Biacore AB, Uppsala, Sweden) and N-hydroxysuccinimide (NHS) (Biacore AB, Uppsala, Sweden) as recommended by Biacore (BIAapplications Handbook, version AB, section 4.2, Biacore AB, Uppsala, Sweden). […] Residual sites on the FcRn flow cell were blocked with 1 M ethanolamine hydrochloride pH 8.5 (Biacore AB, Uppsala, Sweden). A control flow cell was blocked with ethanolamine for reference subtraction. For analysis of the monomeric peptides, FcRn was coated to a final density of 4000-5000 response units (RU). For analysis of the peptide dimers, FcRn was coated to a density of 2000-2500 RU. All SPR measurements were performed using a BIACORE 3000 Instrument (Biacore AB Uppsala, Sweden). For measurements done at either pH 6 or pH 7.4, experiments were performed in 50 mM phosphate, 100 mM sodium chloride, 0.01% surfactant P20 (Biacore AB, Uppsala, Sweden).
(§2) Ten, 2-fold dilutions of the peptide were injected over the FcRn-CM5 chip at a rate of 20 μl/min for 2 min. The peptide was dissociated from the chip for 2.5 minutes with buffer. Any remaining peptide was removed from the chip with a 30 second injection of HBS-P buffer (Biacore AB, Uppsala, Sweden) at a rate of 30 μl/min. Sensorgrams were generated and analyzed using BiaEval software version 3.1 (Biacore AB, Uppsala, Sweden). The equilibrium RU observed for each injection was plotted against concentration. The equilibrium KD values were derived by analysis of the plots using the steady state affinity model included in the BiaEval software.

soluble human FcRn [2] = target: T1, soluble human FcRn; experiment: ELISA, competitor human IgG
Experimental: (§3) The wells were coated with 100 μl/well of 1 μg/ml biotinylated-shFcRn in Buffer A. The plate was sealed and incubated at 37° C. for 2 hours. Afterwards, the plate washed with 200 μl/well of Buffer B (Buffer B: 100 mM MES pH 6, 150 mM NaCl, 0.5% BSA IgG-free (Jackson ImmunoResearch, West Grove, Pa.), 0.05% Tween-20). […] To allow for mixing, the plate was rocked for 2 minutes, sealed and incubated at 37° C. for 2 hours. […] The plate was covered, incubated for 30 minutes at room temperature and washed 4 times with 200 μl/well of ice-cold buffer B. SureBlue TMB substrate solution (100 μl/well, KPL, Gaithersburg, Md.) was added and the plate was allowed to incubate at room temperature until color developed, which took 5 to 10 minutes. Once color developed, 100 μl/well of TMB stop solution (KPL, Gaithersburg, Md.) was added and the absorbance was measured at 450 nm. The data was plotted as absorbance vs. peptide concentration to derive the inhibitory concentration 50% (IC₅₀) values.

soluble human FcRn [3] = target: T1, soluble human FcRn; experiment: SPR, pH 7.4
Experimental: as §1, §2

soluble human FcRn [4] = target: T1, soluble human FcRn; experiment: ELISA, competitor human IgG; remark: listed apart in the source
Experimental: as §3

soluble human FcRn [5] = target: T1, soluble human FcRn; experiment: SPR, pH 6; remark: listed apart in the source
Experimental: as §1, §2

soluble human FcRn [6] = target: T1, soluble human FcRn; experiment: ELISA, competitor human IgG; remark: listed apart in the source
Experimental: as §3

soluble human FcRn [7] = target: T1, soluble human FcRn; experiment: SPR, pH 7.4; remark: listed apart in the source
Experimental: as §1, §2

soluble human FcRn [8] = target: T1, soluble human FcRn; experiment: ELISA, competitor human IgG; remark: listed apart in the source
Experimental: as §3

soluble human FcRn [9] = target: T1, soluble human FcRn; experiment: SPR, pH 6; remark: listed apart in the source
Experimental: as §1, §2

soluble human FcRn [10] = target: T1, soluble human FcRn; experiment: ELISA, competitor human IgG; remark: listed apart in the source
Experimental: as §3

soluble human FcRn [11] = target: T1, soluble human FcRn; experiment: SPR, pH 7.4; remark: listed apart in the source
Experimental: as §1, §2

soluble human FcRn [12] = target: T1, soluble human FcRn; experiment: ELISA, competitor human IgG; remark: listed apart in the source
Experimental: as §3

soluble human FcRn [13] = target: T1, soluble human FcRn; experiment: SPR, pH 6; remark: listed apart in the source
Experimental: as §1, §2

soluble human FcRn [14] = target: T1, soluble human FcRn; experiment: SPR, pH 6; remark: listed apart in the source
Experimental: as §1, §2

soluble human FcRn [15] = target: T1, soluble human FcRn; experiment: ELISA, competitor human IgG; remark: listed apart in the source
Experimental: as §3

soluble human FcRn [16] = target: T1, soluble human FcRn; experiment: ELISA, competitor human IgG; remark: listed apart in the source
Experimental: as §3

soluble human FcRn [17] = target: T1, soluble human FcRn; experiment: SPR, pH 7.4; remark: listed apart in the source
Experimental: as §1, §2

soluble human FcRn [18] = target: T1, soluble human FcRn; experiment: SPR, pH 6; remark: listed apart in the source
Experimental: as §1, §2

soluble human FcRn [19] = target: T1, soluble human FcRn; experiment: ELISA, competitor human IgG; remark: listed apart in the source
Experimental: as §3

soluble human FcRn [20] = target: T1, soluble human FcRn; experiment: SPR, pH 6; remark: listed apart in the source
Experimental: as §1, §2

soluble human FcRn [21] = target: T1, soluble human FcRn; experiment: ELISA, competitor human IgG; remark: listed apart in the source
Experimental: as §3

Binder: RFVTGHF[6,5‑bicyclic dipeptide mimic]LYPA-NH2 (reading uncertain) [Peptide No. 207]
IC50 (soluble human FcRn [4]): > 125 µM
Kd (soluble human FcRn [5]): 20 µM

B1: Peptide No. 35 (peptide)
peptide: QRFCTGHF[Ava]LYPCNGP-NH2
modifications: disulfide 4-13; N-terminus assumed
SMILES: CC(C)C[C@@H]1NC(=O)CCCCNC(=O)[C@H](Cc2ccccc2)NC(=O)[C@H](Cc2c[nH]cn2)NC(=O)CNC(=O)[C@H]([C@@H](C)O)NC(=O)[C@@H](NC(=O)[C@H](Cc2ccccc2)NC(=O)[C@H](CCCNC(=N)N)NC(=O)[C@@H](N)CCC(N)=O)CSSC[C@@H](C(=O)N[C@@H](CC(N)=O)C(=O)NCC(=O)N2CCC[C@H]2C(N)=O)NC(=O)[C@@H]2CCCN2C(=O)[C@H](Cc2ccc(O)cc2)NC1=O
IC50 (soluble human FcRn [6]): > 125 µM

Binder: RFXTGHFGGLYPCNGP (Pen at 3; NMeLeu at 10; disulfide; C-terminal amide) [Peptide No. 146]
Kd (soluble human FcRn [7]): 0.28 µM
IC50 (soluble human FcRn [8]): 2.1 µM
Kd (soluble human FcRn [9]): 0.059 µM

Binder: RF[Pen]TGHFG[Sar]YPCNGP-NH2 (disulfide 3-12 (inferred), printed without the Leu after Sar) [Peptide No. 147]
Kd (soluble human FcRn [7]): 0.35 µM
IC50 (soluble human FcRn [8]): 1 µM
Kd (soluble human FcRn [9]): 0.058 µM

B2: Peptide No. 208 (peptide)
peptide: RFVTGHF[X3]LYPA-NH2
modifications: N-terminus assumed
SMILES: CC(C)C[C@H](NC(=O)CN1CCCC[C@H](NC(=O)[C@H](Cc2ccccc2)NC(=O)[C@H](Cc2c[nH]cn2)NC(=O)CNC(=O)[C@@H](NC(=O)[C@@H](NC(=O)[C@H](Cc2ccccc2)NC(=O)[C@@H](N)CCCNC(=N)N)C(C)C)[C@@H](C)O)C1=O)C(=O)N[C@@H](Cc1ccc(O)cc1)C(=O)N1CCC[C@H]1C(=O)N[C@@H](C)C(N)=O
IC50 (soluble human FcRn [4]): 23 µM
Kd (soluble human FcRn [5]): 2.3 µM

B3: Peptide No. 194 (peptide)
peptide: QRFXTGHFGXYPCNGP
modifications: Pen at 4; X at 10 = D,L-Friedinger's lactam (dipeptide mimetic for Gly-Leu); disulfide; C-terminal amide
IC50 (soluble human FcRn [10]): 4.9 µM

Binder: QRFXTGHFGGLXPCNGP (Pen at 4; 3-pyridylAla at 12; disulfide; C-terminal amide) [Peptide No. 67]
Kd (soluble human FcRn [14]): 34 µM
IC50 (soluble human FcRn [15]): 92 µM

B4: Peptide No. 185 (peptide)
peptide: RFVTGHFXLYPA
modifications: X at 8 = 3-amino-N-1-carboxymethyl-2,3,4,5-tetrahydro-1H-[1]-benzazepine-2-one (drawing CHEM-US-00097); linear; C-terminal amide
IC50 (soluble human FcRn [4]): 57 µM
Kd (soluble human FcRn [5]): 3.1 µM

Binder: QRFVTGHF[3‑amino‑2‑oxo‑1‑piperidine‑acetic acid]WYPINGP-NH2 (also: further groups not given here) [Peptide No. 191]
Kd (soluble human FcRn [5]): 333 µM

Binder: QRYXTGHFGGLYPCNGP (Pen at 4; disulfide; C-terminal amide) [Peptide No. 97]
IC50 (soluble human FcRn [19]): 2.4 µM

B6: Peptide No. 213 (peptide)
peptide: QRF[Pen][NMeA]GHFGGLYPCNGP-NH2
modifications: disulfide 4-14; N-terminus assumed
SMILES: CC(C)C[C@@H]1NC(=O)CNC(=O)CNC(=O)[C@H](Cc2ccccc2)NC(=O)[C@H](Cc2c[nH]cn2)NC(=O)CNC(=O)[C@H](C)N(C)C(=O)[C@@H](NC(=O)[C@H](Cc2ccccc2)NC(=O)[C@H](CCCNC(=N)N)NC(=O)[C@@H](N)CCC(N)=O)C(C)(C)SSC[C@@H](C(=O)N[C@@H](CC(N)=O)C(=O)NCC(=O)N2CCC[C@H]2C(N)=O)NC(=O)[C@@H]2CCCN2C(=O)[C@H](Cc2ccc(O)cc2)NC1=O
Kd (soluble human FcRn [20]): 1 µM
IC50 (soluble human FcRn [21]): 5.5 µM

Binder: QRWXTGHFGGLYPCNGP (Pen at 4; disulfide; C-terminal amide) [Peptide No. 98]
IC50 (soluble human FcRn [19]): 1.5 µM

Binder: QRFXGGHFGGLYPCNGP (Pen at 4; disulfide; C-terminal amide) [Peptide No. 195]
Kd (soluble human FcRn [20]): 0.76 µM

Binder: QRFXTGHFGGLXPCNGP (Pen at 4; 4-amino-Phe at 12; disulfide; C-terminal amide) [Peptide No. 63]
Kd (soluble human FcRn [14]): 34 µM
IC50 (soluble human FcRn [15]): 110 µM

Binder: QRFXTGHFGGLYPCNGP (D-Phe at 3; Pen at 4; disulfide; C-terminal amide) [Peptide No. 96]
IC50 (soluble human FcRn [19]): 11.4 µM

Now from value to binder:

Kd (soluble human FcRn [1]): 8.8 µM
IC50 (soluble human FcRn [2]): 49 µM
Kd (soluble human FcRn [3]): 76 µM
Binder: AGPSYCIEGHIDGIYCFNAGTGGGK-NH2 (disulfide 6-16 (inferred)) [SEQ ID NO:9]

Kd (soluble human FcRn [1]): 22 µM
IC50 (soluble human FcRn [2]): 64 µM
Binder: AGKIICSPGHFGGMYCQGKGTGGGK-NH2 (disulfide 6-16 (inferred)) [SEQ ID NO:8]

Kd (soluble human FcRn [11]): 200 µM
IC50 (soluble human FcRn [12]): > 125 µM
Kd (soluble human FcRn [13]): 230 µM
Binder: QRFCTGHFAGLYPCNGP-NH2 (disulfide 4-14 (inferred)) [SEQ ID NO:31]

Kd (soluble human FcRn [11]): 81 µM
IC50 (soluble human FcRn [12]): 107 µM
Kd (soluble human FcRn [13]): 26 µM
Binder: QRFCTGHFGGAYPCNGP-NH2 (disulfide 4-14 (inferred)) [SEQ ID NO:33]

Kd (soluble human FcRn [11]): 100 µM
Binder: QRFCTGHFGGLYACNGP-NH2 (disulfide 4-14 (inferred)) [SEQ ID NO:35]

IC50 (soluble human FcRn [10]): 19 µM
B5: Peptide No. 216 (peptide)
peptide: QRFXTGHFGXYPCNGP
modifications: Pen at 4; X at 10 = L,L-Friedinger's lactam (dipeptide mimetic for Gly-Leu); disulfide; C-terminal amide

Kd (soluble human FcRn [1]): 5.7 µM
IC50 (soluble human FcRn [16]): 36 µM
IC50 (soluble human FcRn [2]): 36 µM
Kd (soluble human FcRn [3]): 45 µM
Kd (soluble human FcRn [17]): 45 µM
Kd (soluble human FcRn [18]): 5.7 µM
Binder: AGQRFCTGHFGGLYPCNGPGTGGGK-NH2 (disulfide 6-16 (inferred)) [SEQ ID NO:6]

Kd (soluble human FcRn [1]): 5.2 µM
Kd (soluble human FcRn [3]): 34.7 µM
Binder: AGGGCVTGHFGGIYCNTQGTGGGK-NH2 (disulfide 5-15 (inferred)) [SEQ ID NO:7]
